Target: T1, NRSF/REST (lambda-HZ4 partial) (Homo sapiens) (UniProt Q13127)
T1 sequence: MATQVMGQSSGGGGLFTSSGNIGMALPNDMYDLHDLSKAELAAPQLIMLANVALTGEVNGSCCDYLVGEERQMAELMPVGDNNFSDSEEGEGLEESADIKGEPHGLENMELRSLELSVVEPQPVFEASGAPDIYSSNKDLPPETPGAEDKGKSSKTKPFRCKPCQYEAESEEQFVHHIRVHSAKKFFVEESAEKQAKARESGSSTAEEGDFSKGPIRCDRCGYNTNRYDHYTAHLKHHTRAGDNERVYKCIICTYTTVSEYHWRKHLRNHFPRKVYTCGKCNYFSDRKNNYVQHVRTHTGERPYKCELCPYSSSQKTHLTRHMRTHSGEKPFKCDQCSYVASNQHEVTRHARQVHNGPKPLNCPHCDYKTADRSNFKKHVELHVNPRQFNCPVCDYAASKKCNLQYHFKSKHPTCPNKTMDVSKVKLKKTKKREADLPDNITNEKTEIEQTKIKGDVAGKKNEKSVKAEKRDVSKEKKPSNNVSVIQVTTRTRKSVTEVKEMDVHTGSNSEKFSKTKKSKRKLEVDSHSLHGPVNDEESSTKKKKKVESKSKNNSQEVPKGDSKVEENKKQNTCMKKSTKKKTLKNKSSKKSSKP
Test: cell_activity
Conditions: pCAT3 reporter, maximum pCMV-HZ4, PC12 cells

## pCAT3 SCG10 proximal promoter without NRSE
  activity (fold repression): 1.5
